{"source": "paper PMC9180016", "origin": "cited, not measured here", "key": {"[1]": {"target": "p66Shc (Homo sapiens) (UniProt P29353)"}, "[2]": {"target": "cytochrome c (UniProt P99999)", "sequence (P99999 2-105)": "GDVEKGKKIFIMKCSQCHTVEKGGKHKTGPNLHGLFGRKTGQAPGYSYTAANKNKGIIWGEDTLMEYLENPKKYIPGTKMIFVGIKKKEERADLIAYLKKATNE"}}}
{"substance": "Mortalin (from UniProt P38646)", "values": [{"measurement": "Kd", "setting": "[1]", "value": 858, "unit": "nM"}]}
{"substance": "p66Shc (from UniProt P29353)", "values": [{"measurement": "Ki", "setting": "[2]", "value": 1430, "unit": "nM"}]}
